From the supplement of paper PMC10899765 come the findings set out here.

What all share (conditions): 20 nM; 72 h
The test system of series [1] is MCF10A. The series is described as follows: one-nucleolus phenotype percent effect (relative to siNT 0% and siNOL11 100%); higher = more cells with one nucleolus (ribosome biogenesis inhibition). On the procedure:
(§1)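 After 72 h, cells were fixed and stained with Hoechst and anti-fibrillarin, and nucleoli per nucleus were counted with CellProfiler. Values are plate-adjusted percent effect for the one-nucleolus and 5+ nucleoli phenotypes, normalised to siNT (0%) and to the positive controls siNOL11 or siKIF11 (100%), as the mean of biological triplicates. Percent viability is the nuclei count relative to siNT.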

The subject of series [2] is MCF10A. The series is described as follows: percent viability (nuclei count relative to siNT); higher = more viable cells. On the procedure: as §1
Series [3] relates to MCF10A. The series is described as follows: 5+ nucleoli phenotype percent effect (relative to siNT 0% and siKIF11 100%); higher = more cells with five or more nucleoli. The method, then:
as §1

On to GCUGCGCUUGGAUUUCGUCCCC [hsa-miR-191-3p], for which, in series [1], the “one-nucleolus phenotype percent effect” value was found to be 5.27%. For the same sequence, the percent viability in series [2] came out at 71%. In series [3], the “5+ nucleoli phenotype percent effect” value was 5.48%.

Turning to CUCUGGGAAAUGGGACAG [hsa-miR-4314], the “one-nucleolus phenotype percent effect” value in series [1] worked out at 11.2%. In addition, the percent viability in series [2] stood at 25.6%. The “5+ nucleoli phenotype percent effect” value in series [3] was -5.34%.

Consider UCAGCUACUACCUCUAUUAGG [hsa-miR-5690], for which, in series [1], the “one-nucleolus phenotype percent effect” value was -20.3%. Further, the percent viability in series [2] came to 105%. For the same sequence, in series [3], the “5+ nucleoli phenotype percent effect” value was determined as 15.5%.

Regarding “AGGGUGGGGCUGGAGGUGGGGCU [hsa-miR-6756-5p]”, the “one-nucleolus phenotype percent effect” value in series [1] came out at 3.98%. Besides, the percent viability in series [2] worked out at 42%. The “5+ nucleoli phenotype percent effect” value in series [3] is -11%.

As to “UAUGUAGUAGUCAAAGGCAUUU [hsa-miR-7852-3p]”, the “one-nucleolus phenotype percent effect” value in series [1] is -3.81%. For the same sequence, in series [2], the percent viability stood at 81.4%. In addition, the “5+ nucleoli phenotype percent effect” value in series [3] is -8.45%.

In the case of GUGAGUCUCUAAGAAAAGAGGA [hsa-miR-627], the “one-nucleolus phenotype percent effect” value in series [1] was -10.4%. Also, the percent viability in series [2] stood at 62.9%. Moreover, the “5+ nucleoli phenotype percent effect” value in series [3] worked out at 7.75%.

As to AAAAGUGAUUGCAGUGUUUG [hsa-miR-548ah-5p], the “one-nucleolus phenotype percent effect” value in series [1] was -15.3%. Besides, the percent viability in series [2] was 114%. In addition, the “5+ nucleoli phenotype percent effect” value in series [3] worked out at 17.4%.

Regarding UGAGGCGGGGGGGCGAGC [hsa-miR-6087], in series [1], the “one-nucleolus phenotype percent effect” value is 15.3%. In series [2], the percent viability came out at 53.3%. Further, the “5+ nucleoli phenotype percent effect” value in series [3] is -13.4%.

Consider “GUCCUCCAGGCCAUGAGCUGCGG [hsa-miR-4691-5p]”, for which the “one-nucleolus phenotype percent effect” value in series [1] is -11.3%. In addition, in series [2], the percent viability stood at 89.2%. In addition, the “5+ nucleoli phenotype percent effect” value in series [3] was found to be 47.9%.

In the case of ACACUGUCCCCUUCUCCCCAG [hsa-miR-6760-3p], the “one-nucleolus phenotype percent effect” value in series [1] was -27.2%. In addition, in series [2], the percent viability amounted to 92.8%. Besides, the “5+ nucleoli phenotype percent effect” value in series [3] was 56.3%.

For “GCUACUUCACAACACCAGGGCC [hsa-miR-138-1-3p]”, the “one-nucleolus phenotype percent effect” value in series [1] is -15.7%. Also, in series [2], the percent viability was 112%. For the same sequence, the “5+ nucleoli phenotype percent effect” value in series [3] turned out to be 30.5%.

On to “AUAAUACAACCUGCUAAGUGCU [hsa-miR-374c-5p]”, for which the “one-nucleolus phenotype percent effect” value in series [1] was 26.4%. For the same sequence, in series [2], the percent viability was 45.3%. Also, the “5+ nucleoli phenotype percent effect” value in series [3] was -36.9%.

As to GCUGACUCCUAGUCCAGGGCUC [hsa-miR-345-5p], the “one-nucleolus phenotype percent effect” value in series [1] was -8.97%. The percent viability in series [2] is 100%. Also, the “5+ nucleoli phenotype percent effect” value in series [3] was 31.9%.

On to GGUUCUUAGCAUAGGAGGUCU [hsa-miR-2116-5p], for which, in series [1], the “one-nucleolus phenotype percent effect” value worked out at 12.8%. In addition, the percent viability in series [2] amounted to 35.2%. The “5+ nucleoli phenotype percent effect” value in series [3] is -5.52%.

Consider “CCUGGACACCGCUCAGCCGGCCG [hsa-miR-4638-3p]”, for which the “one-nucleolus phenotype percent effect” value in series [1] is -15.8%. In addition, in series [2], the percent viability worked out at 106%. In addition, the “5+ nucleoli phenotype percent effect” value in series [3] came to 8.98%.

Turning to “UGGGAGCCAUGAGGGUCUGUGC [hsa-miR-6827-5p]”, in series [1], the “one-nucleolus phenotype percent effect” value worked out at 26.3%. In addition, in series [2], the percent viability was 15.6%. In series [3], the “5+ nucleoli phenotype percent effect” value is -1.65%.

Take GAACGGCUUCAUACAGGAGUU [hsa-miR-337-5p]: in series [1], the “one-nucleolus phenotype percent effect” value was 9.16%. For the same sequence, in series [2], the percent viability stood at 53.8%. For the same sequence, the “5+ nucleoli phenotype percent effect” value in series [3] is -25.8%.

Consider CUCCCACUUCCAGAUCUUUCU [hsa-miR-3156-3p], for which, in series [1], the “one-nucleolus phenotype percent effect” value was -4.85%. Moreover, the percent viability in series [2] was 34.1%. Also, the “5+ nucleoli phenotype percent effect” value in series [3] amounted to 12%.

For the sequence UACGGUGAGCCUGUCAUUAUUC [hsa-miR-433-5p], the “one-nucleolus phenotype percent effect” value in series [1] came out at 4.21%. Further, in series [2], the percent viability was determined as 32.9%. The “5+ nucleoli phenotype percent effect” value in series [3] was -4.1%.

Take GUGCAAAAGUCAUCACGGUU [hsa-miR-548aw]: the “one-nucleolus phenotype percent effect” value in series [1] was -0.384%. In series [2], the percent viability came out at 57.6%. Moreover, the “5+ nucleoli phenotype percent effect” value in series [3] is -29.9%.
